Columns and labels:
[1] = system: Pseudomonas aeruginosa aggregate biofilms; conditions: previous experiments, succinate-minimal medium, 27 hours; cited from earlier work
[2] = Protein yield of PodA variants purified from inclusion bodies of overexpression culture
Protocol: Protein overproduction and purification of soluble and inclusion body fractions. Plasmids coding for proteins of interest were transformed into E. coli BL21 […]. […]. Cultures were grown at 37° C. with shaking to an optical density of 0.4 (OD600 nm) and plasmid expression was induced with IPTG (50 μM) and shaken overnight at 16° C. Cells were harvested by centrifugation at 5,000×g for 10 min in a Beckman Coulter Avanti J-20 XOI refrigerated centrifuge using a JLA-8.1000 rotor at 4° C. Cell pellets were stored at −80° C. until used.
For purification of PodA from inclusion bodies, the pellets remaining following lysis and centrifugation at 40,000×g were resuspended in 20 mL of detergent buffer [50 mM HEPES (pH 7.5) and 1% Triton-X (v/v)] using a Bio-gen PRO200 cell homogenizer (PRO Scientific). Sample was spun for 15 min at 40,000×g at 4° C. in a Beckman Coulter Avanti centrifuge with a JA-25.50 rotor. Supernatant was discarded and the remaining cell pellet was resuspended in 5 mL of buffer [50 mM HEPES (pH 7.5), 500 mM NaCl] using a cell homogenizer, supplemented with lysozyme (200 μg mL^−1), and incubated for 10 min. Volume was increased to 20 mL with HEPES (50 mM, pH 7) and sample was spun for 40,000×g at 4° C. for 15 min. Supernatant was discarded and pellet was homogenized in 10 mL of denaturing buffer 50 mM HEPES (pH 7.5), 500 mM NaCl, and 8M urea) and incubating rocking overnight. The sample was spun at for 40,000×g at 25° C. for 30 min and supernatant was incubated with 1 mL HisPur Ni-NTA resin (Thermo Fisher Scientific) on a rocking platform for 10 min. Beads were allowed to settle without shaking, supernatant was discarded, and resin was pipetted into glass gravity columns. Resin was washed with 15 mL of denaturing buffer, followed by an elution with denaturing buffer supplemented with imidazole (500 mM). Fractions were analyzed by SDS-PAGE and those containing protein were combined into SnakeSkin 3.5 K MWCO dialysis tubing (Thermo Fisher Scientific). Urea was slowly dialyzed out in HEPES (50 mM, pH 7.5) and NaCl (500 mM) by lowing urea concentrations by 1 M increments. Each step was dialyzed at RT for 30 min. Protein was dialyzed in HEPES (50 mM, pH 7.5), NaCl (500 mM), and imidazole (20 mM) overnight at 4° C. The following day, protein was cleaved for 3 h at 25° C. with TEV protease (1:50 mg:mg ratio of TEV to PodA). The sample was applied to a HisPur gravity column and cleaved protein in the flow thru was confirmed by SDS-PAGE. Cleaved PodA protein was then dialyzed for storage for 3 h at 4° C. in HEPES (50 mM pH 7.5), NaCl (250 mM) and finally in HEPES (50 mM, pH 7.5), NaCl (100 mM), and glycerol (20%, v/v). Protein concentration was established on a NanoDrop™ using the extinction coefficient and MW of each protein. Protein was drop frozen in LN2 and stored at −80° C. until use.

[3] = Continuous spectrophotometric PYO demethylation assay (specific activity and kinetics of PodA); format: biochemical
Protocol: Specific activity and kinetics of PodA. To determine specific activity and kinetic parameters of PodA for PYO, a continuous spectrophotometric assay monitoring the absorbance of PYO (690 nm) was utilized. Briefly, assays were performed at 25° C. in 100 μL reaction volumes in 96-well plates and reactions were monitored at 690 nm over 10 min. Reaction mixtures contained Phosphate buffer (50 mM, pH 6.0), ethylene glycol (1%, v/v), protein (3 μM) and substrate (for specific activity, 100 μM, for kinetics, varying). Data were acquired using the SpectraMax® M3 Microplate Reader (Molecular Devices) using the Soft Max Pro software every 10 s over 10 min. Path lengths for each well were calculated using Soft Max Pro endpoint readings and slopes were corrected for path lengths of 1 cm.
Specific activity was calculated from the slope of the linear range of (ΔOD690 min^−1) using Beer's Law (A=εcl) with a path length of 1 cm and the molar extinction coefficient of PYO (4,130 M^−1 cm^−1). Equation was solved for c, giving specific activity in nmol min^−1 mg^−1 of PodA. For kinetic parameters, graphs of initial velocity (μM s^−1) versus substrate concentration (μM) were plotted using Prism v8 (GraphPad). The Michaelis-Menten kinetics model was used to determine Km and Vmax. The turnover number (kcat) was determined using the following equation: Vmax=kcat[E], where [E] was the concentration of PodA added. All spectrophotometric assays mentioned above were completed thrice, each in technical triplicate with a representative data set shown. Error bars represent standard deviation as calculated by Prism v8 (GraphPad). Standard deviation for kcat and Kcat KM^−1 was calculated using standard formulas for propagation of error.

[4] = system: Pseudomonas aeruginosa; assay: Crystal violet biofilm assay; format: cell-based; conditions: 24 h incubation, protein added from the beginning
Protocol: Crystal violet assay. Pseudomonas aeruginosa grown overnight in LB were inoculated (1.5%, v/v) and grown for 24 h at 37° C. in 96-well round bottom plates in minimal medium (100 μL) with arginine (40 mM) as the sole carbon source. PodA was added with cells simultaneously and was present during growth and biofilm development. Planktonic cells were removed and attached cells were quantified with crystal violet staining (125 μL. 0.1% w/v), followed by washes with water and de-staining with an acetic acid (30%, v/v) mixture in water. Crystal violet was measured using a SpectraMax® M3 Microplate Reader (Molecular Devices) at an absorbance of 550 nm. Details of procedure were published previously (28)[43].

[5] = pH 6, 1% ethylene glycol, PodA 3 μM, substrate PYO

B1: WT PodA41-162: Truncated wild-type pyocyanin demethylase from Mycobacterium fortuitum (MFORT_14352) lacking N-terminal membrane helix, SEQ ID NO: 3 (protein)
chain: VTMTLDVKNDQVAKHDFGKPGMDVGDMDIFSDILSVDGKQVGYDGGACFFTNVTPDNPMTYCELTIHLDAGEIFARSLTPHTLAPFTMAITGGTGEYANSKGELTVSGVATPDEKYELKLTK
[1]
  aggregate development in ABBA: smaller aggregates in anoxic regions of the agar
[2]; per L of bacterial culture, typical
  protein yields: ~0.3 mg/L
[2]; purified from inclusion bodies, per L of E. coli overexpression culture
  Yield: 0.33 mg/L^−1
[3]; buffers pH 5.5-10.0, PodA 3 μM, PYO 100 μM
  pH of optimal activity: 6
[3]; cystic fibrosis sputum range, 66 mM Na+, 15 mM K+
  Effect of salts (NaCl and KCl) on activity: did not inhibit or enhance
[3]; [5]
  Km: 372 µM
  catalytic efficiency: 4.74±0.24×10^2 M^−1 s^−1
  kcat: 0.176 ± 0.003 s⁻¹
[3]; pH 6, PodA 3 μM, PYO 100 μM
  Effect of slight increase in viscosity (ethylene glycol or glycerol 1% v/v) on activity: enhanced
[3]; protein from soluble fraction
  catalytic efficiency: 1.05±0.093×10^2 M^−1 s^−1
[3]; protein purified from inclusion bodies, denatured and refolded
  catalytic efficiency: 1.14±0.25×10^2 M^−1 s^−1
[4]
  biofilm attachment (crystal violet): biofilm attachment defect
